Data on two substances can be found in patent US20120315270A1.

Experiment [1] concerns the target RSV F glycoprotein on GFP-expressing RSV (respiratory syncytial virus) (UniProt P03420).
The target of experiment [2] is RSV F0 Fd (respiratory syncytial virus, strain A2) (UniProt P03420). As to the kind of experiment: densitometry of SDS-PAGE of the gel filtration complex peak. A general note: SEC sorts molecules by how far they enter the pores of the column.

As for SYNAGIS® IgG (palivizumab) (antibody), the EC50 (read off the curve), neutralization of GFP-expressing RSV on HEp-2 cells, flow cytometry in experiment [1] turned out to be 0.5 nM.

palivizumab Fab yielded a Fabs per trimer (Fabs per trimer) in experiment [2] of 2.97.
